For assay [1], the target named is T1, Peptide 2, non-conjugated (GSESTSSMED-C) (human).
T1 construct: With the extra C-terminal Cys
T1 peptide: GSESTSSMEDC
Nature of the assay: ELISA; Ab 0.0625 ug/mL; repI. As for the experimental part: (§1) In brief, plates with each non-conjugated peptide (50 μg/mL) or BSA-conjugated peptide (5 μg/mL) were coated in 0.58M carbonate-bicarbonate buffer pH9.5, 100 μL/well, at 4° C. […] After washing, wells were incubated with the 3, 3′,5,5′-Tetramethylbenzidine (TMB) HRP substrate and reactions were stopped with 2M HCl and OD450 was recorded.

The target of assay [2] is T2, Peptide 3, non-conjugated (SSMEDYVNFN-C) (human).
T2 construct: With the extra C-terminal Cys
T2 peptide: SSMEDYVNFNC
Nature of the assay: ELISA; Ab 0.0625 ug/mL; repI. The procedure:
as §1

Assay [3] addresses T3, Peptide 4, non-conjugated (SMEDYVNFNF-C) (human).
T3 construct: With the extra C-terminal Cys
T3 peptide: SMEDYVNFNFC
Nature of the assay: ELISA; Ab 0.0625 ug/mL; repI. The procedure: as §1

Assay [4] has as its target T4, antigen peptide-BSA (immunisation peptide #1 MADDYGSESTSSMEDYVNFNF-C conjugated to BSA) (human, extra C-terminal Cys conjugated to BSA).
T4 construct: also called Positive control antigen peptide-BSA; MADDY peptide
T4 peptide: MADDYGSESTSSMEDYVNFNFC
The assay can be described thus: ELISA; Ab 0.0625 ug/mL; repI. The procedure:
as §1

Assay [5] has as its target T5, Peptide 3-BSA (SSMEDYVNFN-C conjugated to BSA) (human).
T5 peptide: SSMEDYVNFNC(BSA)
The assay can be described thus: ELISA; Ab 0.125 ug/mL; repII. The procedure:
as §1

For assay [6], the target named is T6, Peptide 4-BSA (SMEDYVNFNF-C conjugated to BSA) (human).
T6 peptide: SMEDYVNFNFC(BSA)
The assay can be described thus: ELISA; Ab 0.125 ug/mL; repII. As for the experimental part: as §1

Assay [7] addresses T7, Peptide 1, non-conjugated (MADDYGSEST-C) (human).
T7 construct: With the extra C-terminal Cys
T7 peptide: MADDYGSESTC
The assay can be described thus: ELISA; Ab 0.125 ug/mL; repII. The procedure:
as §1

Assay [8] concerns the target T1, Peptide 2, non-conjugated (GSESTSSMED-C). The assay can be described thus: ELISA; Ab 0.125 ug/mL; repII. The procedure:
as §1

Assay [9] concerns the target T2, Peptide 3, non-conjugated (SSMEDYVNFN-C). Nature of the assay: ELISA; Ab 0.125 ug/mL; repII. As for the experimental part:
as §1

Assay [10] has as its target T3, Peptide 4, non-conjugated (SMEDYVNFNF-C). Nature of the assay: ELISA; Ab 0.125 ug/mL; repII. The procedure:
as §1

Assay [11] has as its target T8, BSA (negative control coating) (bovine, UniProt P02769 25-607).
T8 construct: also called Negative control BSA
The assay can be described thus: ELISA; Ab 0.125 ug/mL; repII. As for the experimental part:
as §1

The target in assay [12] is T4, antigen peptide-BSA (immunisation …). Nature of the assay: ELISA; Ab 0.125 ug/mL; repII. The procedure:
as §1

Assay [13] concerns the target T9, Peptide 1-BSA (MADDYGSEST-C conjugated to BSA) (human).
T9 peptide: MADDYGSESTC(BSA)
Nature of the assay: ELISA; Ab 0.125 ug/mL; repII. The procedure:
as §1

Assay [14] deals with T10, Peptide 2-BSA (GSESTSSMED-C conjugated to BSA) (human).
T10 peptide: GSESTSSMEDC(BSA)
Nature of the assay: ELISA; Ab 0.125 ug/mL; repII. As for the experimental part:
as §1

In assay [15] the target is T5, Peptide 3-BSA (SSMEDYVNFN-C conjugated …). Nature of the assay: ELISA; Ab 0.03125 ug/mL; repII. As for the experimental part: as §1
The target in assay [16] is T6, Peptide 4-BSA (SMEDYVNFNF-C conjugated …). The assay can be described thus: ELISA; Ab 0.03125 ug/mL; repII. As for the experimental part:
as §1

In assay [17] the target is T7, Peptide 1, non-conjugated (MADDYGSEST-C). Nature of the assay: ELISA; Ab 0.03125 ug/mL; repII. The procedure: as §1
Assay [18] concerns the target T1, Peptide 2, non-conjugated (GSESTSSMED-C). Nature of the assay: ELISA; Ab 0.03125 ug/mL; repII. As for the experimental part:
as §1

In assay [19] the target is T8, BSA (negative control coating). Nature of the assay: ELISA; Ab 0.03125 ug/mL; repII. As for the experimental part: as §1
Assay [20] has as its target T4, antigen peptide-BSA (immunisation …). The assay can be described thus: ELISA; Ab 0.03125 ug/mL; repII. The procedure:
as §1

The target of assay [21] is T11, biotin-peptide TSSMEDYVNF (human).
T11 peptide: Biotin-TSSMEDYVNF
The assay can be described thus: ELISA biotin-peptide; scFv 10 ug/mL; repII. As for the experimental part: (§2) The peptides were synthesized naked or with a N-terminal Biotin modification with a purity of >98%. All four scFvs were verified by ELISA that can be detected with anti-His antibodies. ELISA was performed for scFv-peptide binding validation. Briefly, naked peptides were coated (50 μg/mL) in 0.58M carbonate-bicarbonate buffer pH9.5, 100 μL/well, 4° C. O/N. Then after blocking (3% BSA-PBS, 300 μL/well 37° C. 1.5 h) and washing (PBS+Tween-20 0.05% v/v (0.05% PBST), wells were incubated with each purified scFv antibody at concentration of 1 μg/mL in PBS at 37° C. 1 h. After washing (0.05% PBST), wells were incubated with secondary antibodies (goat anti-His IgG-HRP) in PBS, 37° C., 30 min. After washing, and incubation with TMB substrate, reactions were stopped with 2M HCl and reading was quantified at OD450.
(§3) ELISA with biotin-conjugated peptides (5 μg/mL) was performed very similar to described above with minor modifications.
(§4) A full curve ELISA was performed for each positive scFv/biotin-peptide pair in order to confirm previous results. Tables 15-17 show ELISA results of the dose-dependent full curve for each positive peptide with scFv “CCR9_HUM”, “Comp-2” and “Comp-3”, respectively.

Assay [22] has as its target T12, biotin-peptide SSMEDYVNFN (human).
T12 peptide: Biotin-SSMEDYVNFN
Nature of the assay: ELISA biotin-peptide; scFv 10 ug/mL; repII. The procedure:
as §2, §3, §4

The target of assay [23] is T13, biotin-peptide SMEDYVNFNF (human).
T13 peptide: Biotin-SMEDYVNFNF
Nature of the assay: ELISA biotin-peptide; scFv 10 ug/mL; repII. The procedure:
as §2, §3, §4

Assay [24] deals with T14, biotin-peptide MEDYVNFNFT (human).
T14 peptide: Biotin-MEDYVNFNFT
The assay can be described thus: ELISA biotin-peptide; scFv 10 ug/mL; repII. As for the experimental part: as §2, §3, §4

Where no end group is shown, it is not given here. The star is where a group is joined. Biotin = O=C1N[C@H]2[C@H](CS[C@H]2CCCCC(=O)*)N1

T8 sequence (P02769 25-607 limits assumed): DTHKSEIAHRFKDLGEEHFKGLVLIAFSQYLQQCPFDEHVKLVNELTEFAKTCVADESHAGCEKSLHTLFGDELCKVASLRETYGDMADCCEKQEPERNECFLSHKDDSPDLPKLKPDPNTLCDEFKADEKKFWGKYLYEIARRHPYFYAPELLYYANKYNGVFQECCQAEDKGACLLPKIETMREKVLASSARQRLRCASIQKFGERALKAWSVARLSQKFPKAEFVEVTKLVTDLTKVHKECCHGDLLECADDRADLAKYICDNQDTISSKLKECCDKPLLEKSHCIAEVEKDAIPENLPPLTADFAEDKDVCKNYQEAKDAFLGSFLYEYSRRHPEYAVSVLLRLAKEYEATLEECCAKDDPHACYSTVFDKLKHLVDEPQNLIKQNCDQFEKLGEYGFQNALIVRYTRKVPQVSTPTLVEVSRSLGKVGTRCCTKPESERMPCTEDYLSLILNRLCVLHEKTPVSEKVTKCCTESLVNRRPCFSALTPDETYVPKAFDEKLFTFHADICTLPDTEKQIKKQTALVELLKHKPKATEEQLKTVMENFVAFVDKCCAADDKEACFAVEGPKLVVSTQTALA

B1: anti-CCR9 antibody clone 115 (murine, from hybridoma #115) (antibody, V domains shown)
VH: QVQLKQSGPELVKPGTSVRVSCTASGYSFTDYIIYWVKQSHGRSLEWIGYIDPNNYNTRYSQKFKGKATLTVDKSSTSAFMHLNSLTSDDSAVYYCARDVYWGQGTTLTVSS
VL: DVVMTQTPLSLTVSLGDQASISCRSSQSLVHSNGKTYLQWYLQKPGQSPKLLIYKVSNRFSGVPDRFSGSGSGTDFTLKISRVEAEDLGVYFCAQSTHVWTFGGGTKLEIKR
notes: Mouse IgG1
In the case of B1, the OD450 in assay [1] worked out at 0.01 OD; in [2] it was 1.83 OD; in [3] it was 1.14 OD; in assay [4], 1.84 OD; in assay [5], 1.97 OD; in assay [6], 2.39 OD. For the same molecule, the OD450 stood at 0.02 OD in [7]; 0.01 OD in [8]; 1.77 OD in [9]; 1.84 OD in [10]; 0.01 OD in assay [11]; 2.31 OD in assay [12]. The OD450 came out at 0.01 OD in assay [13]; 0.01 OD in assay [14]; 1.57 OD in [15]; 1.53 OD in assay [16]; 0.01 OD in assay [17]; 0.01 OD in assay [18]. Also, the OD450 in assay [19] came to 0.01 OD; in assay [20] it was 1.48 OD.

B2: CCR9_HUM2 scFv (humanized anti-CCR9 scFv, SEQ ID NO: 17 with C-terminal 6xHis tag) (scFv)
scFv: QVQLVQSGAEVKKPGASVKVSCTASGYSFTDYIIYWVKQAHGQSLEWMGYIDPNNYNTRYSQKFQGKVTITVDKSSTSAYMELNSLTSDDTAVYYCARDVYWGQGTTVTVSSGGGGSGGGGSGGGGSGGGGSDVVMTQTPLSLSVTPGQPASISCRSSQSLVHSNGKTYLQWYLQKPGQSPKLLIYKVSNRFSGVPDRFSGSGSGTDFTLKISRVEAEDVGVYFCAQSTHVWTFGGGTKVEIKRAHHHHHH
On to B2, for which the OD450 in assay [21] worked out at 1.36 OD; in assay [22], 1.87 OD; in assay [23] it was 1.85 OD; in assay [24], 1.79 OD.

The values are drawn from patent publication US20260232732A1 (FUNDACI INSTITUT DE RECERCA CONTRA LA LEUC MIA JOSEP …, published 2026).
